The target of this data set is T1, SOS1 (Salt Overly Sensitive 1, plasma membrane Na+/H+ antiporter), Q9LKW9.
T1 chain: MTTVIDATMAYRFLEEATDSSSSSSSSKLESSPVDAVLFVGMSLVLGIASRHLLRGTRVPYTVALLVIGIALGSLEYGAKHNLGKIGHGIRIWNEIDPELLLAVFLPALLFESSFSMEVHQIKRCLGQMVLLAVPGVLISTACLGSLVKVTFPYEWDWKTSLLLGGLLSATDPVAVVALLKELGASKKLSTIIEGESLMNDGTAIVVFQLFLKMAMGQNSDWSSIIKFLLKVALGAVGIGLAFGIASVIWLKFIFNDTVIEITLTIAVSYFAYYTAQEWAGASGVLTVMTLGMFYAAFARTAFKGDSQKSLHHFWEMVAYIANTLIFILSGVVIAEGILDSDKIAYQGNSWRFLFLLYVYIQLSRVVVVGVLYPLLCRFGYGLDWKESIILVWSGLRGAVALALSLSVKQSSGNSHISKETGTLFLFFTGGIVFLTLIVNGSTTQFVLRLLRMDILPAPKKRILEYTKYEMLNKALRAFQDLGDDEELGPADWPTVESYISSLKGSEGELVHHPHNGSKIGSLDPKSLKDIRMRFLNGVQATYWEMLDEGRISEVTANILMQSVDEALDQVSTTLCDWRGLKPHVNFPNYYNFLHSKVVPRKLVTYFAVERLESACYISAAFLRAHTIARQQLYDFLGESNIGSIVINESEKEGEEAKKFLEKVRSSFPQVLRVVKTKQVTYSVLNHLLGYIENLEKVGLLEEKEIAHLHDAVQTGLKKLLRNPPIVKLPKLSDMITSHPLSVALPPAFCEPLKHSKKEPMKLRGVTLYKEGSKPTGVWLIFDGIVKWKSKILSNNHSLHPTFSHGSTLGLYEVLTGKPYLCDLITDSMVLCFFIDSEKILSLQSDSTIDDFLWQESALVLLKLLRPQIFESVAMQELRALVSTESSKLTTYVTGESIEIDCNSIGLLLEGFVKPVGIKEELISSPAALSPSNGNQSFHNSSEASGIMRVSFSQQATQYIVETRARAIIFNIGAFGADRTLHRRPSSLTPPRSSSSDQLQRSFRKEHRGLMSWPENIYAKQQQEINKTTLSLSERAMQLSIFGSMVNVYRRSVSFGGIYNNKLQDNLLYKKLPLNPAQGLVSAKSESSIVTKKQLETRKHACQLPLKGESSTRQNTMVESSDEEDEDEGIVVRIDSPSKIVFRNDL

B1: T/DSOS2 (SOS2 protein kinase with the Thr168-to-Asp change in the activation loop) (protein)
chain: MTKKMRRVGKYEVGRTIGEGTFAKVKFARNTDTGDNVAIKIMAKSTILKNRMVDQIKREISIMKIVRHPNIVRLYEVLASPSKIYIVLEFVTGGELFDRIVHKGRLEESESRKYFQQLVDAVAHCHCKGVYHRDLKPENLLLDTNGNLKVSDFGLSALPQEGVELLRDTCGTPNYVAPEVLSGQGYDGSAADIWSCGVILFVILAGYLPFSETDLPGLYRKINAAEFSCPPWFSAEVKFLIHRILDPNPKTRIQIQGIKKDPWFRLNYVPIRAREEEEVNLDDIRAVFDGIEGSYVAENVERNDEGPLMMNAFEMITLSQGLNLSALFDRRQDFVKRQTRFVSRREPSEIIANIEAVANSMGFKSHTRNFKTRLEGLSSIKAGQLAVVIEIYEVAPSLFMVDVRKAAGETLEYHKFYKKLCSKLENIIWRATEGIPKSEILRTITF
B1: the “plasma membrane Na+/H+-exchange activity, maximum stimulation relative to activity without added protein (100 mM NaCl)” value was “A maximum stimulation of activity of 40% relative to activity without added protein”.

Values taken from patent US20060168698.
